The record followed here is PMC10686230 (The Journal of Cell Biology, 2023).

The data set concerns the molecule itself. Description: SEC + SEC-MALS.

B1: SMGL-1 (purified, GST tag cleaved) (natural protein, C. elegans, UniProt P90841 1-1615, looked up)
chain: MAHMRGTNHEKEKHDDENSKILLKERYNLLKWLTNVEMRSPNVLIPVQIANYVESLPFCKLAVSPKCDRVAVMSYARQLDIYQISGEILTHESSVQVLEETSPEYCILQFSSSSTLILSSRSTPHIDVFDSMGAYLYDIPLELHEGIFDVNSAICGMQTFENYSSSSNDKFIEILYVLQYSGVFSAFKIGRLSKYVKMWTVQLDIGQTGSFTVLPQYNLLLVASHHKESTSLVPPAGLCSFRMMDMDPFVEPIRISTPDGGFFSRLPFSTSFMSYLPRMSLSFDSQLLVSVSTSGSLYLFEIPSLHVKFSFNFISGPRPVDACFVDSDEIAVIYDNGYLLRCSLEDLEEKMYSVKMRSKKEIDEEPELKDFYSEQTVMVSPAQREIFLLTADGDNSFLRKAAHKRVQLAGQLWFYTVWNSLKKLVGMAMGEPAEQLHFETHIAKFEFSLIHSPTRTLQELFDRTLKEHDYTRARELAETYDTIDIYVVLKSEWIDKCSKNKVTVEDVEDILKRIGDSEWAAEQCASADSDDFEVHKALIDLGLSLGESSVTWQIRLLHHWRMLEVCRIKGDVDIYMMARNGSCLDAALTFAHNGDIDSLTRIIESNMAVMKHHQKRILSAIPTCTSPTKYEILMPKREDGETEEQWELEEQNDGIYERLDKILMEHPDAESLIRSINVGNIPNEETFDFTSWVRETLPKIDFECGMTDICVNLLQIAYERGYEDLIHDLATWQPYAQYIRICSSVSESITSFQDSTMKSFTDRFSRLLDSELIKNAKDIVSLIEWKIKMTSSDSEESIEDRLRDAVTTLMKATNERTTKVLVAFRNELPSVVDDHVILEVLLNMTSTGADLMKSLGDLPVDKYVNVTSSLGSLMSRGVKMTFKSIFESMKEPDGARRVLIKLSRSGNCSNFDDWMSLRDDIYDMANGIYEDLVTTEEALEIFAGEILEEERIGSHPELMELVLTLNPKEDNSNPRKLSIAKSADVLLSKSDELMNEATQRGDPLLGRSRFFAVAARPISPKKSKEKLDWLDAIDAALELGCTMMPIAIKFCEHDSLLRDVVGLGSNYKQGKKILSFAKQLNIDTPIATALSYCALAALNANDAVYLSKYIGEVMKAKGVPVVHKLCMQIMNSSHVPTDMEDVYSCAVLNSSEENLLDTVDAIASSEKRLSESRRCREIRLDDIPVSEAVVGDPMYTPMRLYNARKEISGDVKQKITFYGKRNLWETNYGKREGFDVMKRLYAHESSTVALCFSLFEPAENVETGELSWTKNDKLRRYERGLRFFQDRVPLSDLVTAPASAIINEANKGDASITAIDRIEDYGCDRRRFIGDAEYRTETIIGLAGTENEQIFADALELAEKYEIDEWKLHMASLEYLLDPSYNVPIIDVKQIMKSRKHLSKLRTKLDEFHSRLRSMVLPSLETNEQFLSYISLFADAEPEKKLGDTIKKIISKMKNVEAIRLWTDAKYLSSTLNKIPDGNLRAIISSVLQFPKIGVKACEMSAEFLLEGDDTRPPSNPFTLFLLMRSNIEDFLELVANKKSRDDEIAYLDQAVILLENTPKVPPLLLDAIKMRSEKMHRATVTPEPATPSNGSSTGLSSYFSNTEDNSGMMKRRKN
The stoichiometry N is the number of molecules, sites or subunits per partner or assembly. Take B1: the “stoichiometry N” value stood at 4.
